For 1 substance, fold enhancement of binding over the parent A6-TCR results are on record in publication PMC10759225.

This assay concerns the target TAX peptide, a peptide of the human T-cell leukemia virus type I peptide on HLA-A2 (human). Put plainly: data from Cole et al. (2013); the method is not told in this article; the reference is the unmutated A6-TCR.

Regarding “A6-TCR with mutated CDR3 beta loop (PDB 4FTV)”, the fold enhancement of binding over the parent A6-TCR stood at 1000 fold.
